Common to all, as to conditions: both partners purified
Assay [1] concerns the target T1, Nup133 N-terminal domain (Nup133NTD, residues 55-481, S. cerevisiae) (S. cerevisiae, UniProt P36161).
T1 construct: Nup133, S. cerevisiae, N-terminal beta-propeller domain, residues 55-481; The 6xHis tag is 3C cleavable; also called scNup133NTD; WT-Nup133NTD; source: E. coli LOBSTR-RIL(DE3), purified (Ni Sepharose, Superdex 75)
The assay is described as follows: crystal structure; Nup133NTD-VHH-SAN4, 2.1 Å, molecular replacement; crystals at 18 °C, PEG 3,350, ammonium sulfate, Bis-Tris/HCl pH 5.5.

Assay [2] has as its target T2, Nup84 (full-length, S. cerevisiae) (S. cerevisiae, UniProt P52891).
T2 construct: Nup84, S. cerevisiae, full length; The N-terminal 10xHis-8xArg-SUMO tag is 3C cleavable; also called scNup84
The assay is described as follows: crystal structure; Nup84-Nup133CTD-VHH-SAN8, 6.4 Å, SAD with a [TeW6O24]6- derivative; crystals at 18 °C, PEG 8,000, ethylene glycol, imidazole/MES pH 6.5.

Assay [3] has as its target T3, Nup84-Nup133CTD heterodimeric complex (S. cerevisiae) (Saccharomyces cerevisiae (strain ATCC …, UniProt P52891;P36161)).
T3 construct: Nup84, S. cerevisiae, full length; source: E. coli LOBSTR-RIL(DE3), co-expressed from a bicistronic vector, purified (Ni Sepharose, SP Sepharose, Superdex 200)
The assay is described as above.

Assay [4] deals with T1, Nup133 N-terminal domain (Nup133NTD, …). Briefly: crystal structure; Nup133NTD-VHH-SAN5, molecular replacement; six copies in the asymmetric unit; crystals at 18 °C, PEG MME 2,000, potassium chloride, Tris/HCl pH 8.0.
Assay [5] addresses T2, Nup84 (full-length, S. cerevisiae). The assay is described as follows: crystal structure; Nup84-Nup133CTD with VHH-SAN8 and VHH-SAN9, 7.4 Å; crystallised under the same conditions and in the same crystal form as the VHH-SAN8 complex.
For assay [6], the target named is T3, Nup84-Nup133CTD heterodimeric complex …. The assay is described as above.

T1 sequence (P36161 55-481): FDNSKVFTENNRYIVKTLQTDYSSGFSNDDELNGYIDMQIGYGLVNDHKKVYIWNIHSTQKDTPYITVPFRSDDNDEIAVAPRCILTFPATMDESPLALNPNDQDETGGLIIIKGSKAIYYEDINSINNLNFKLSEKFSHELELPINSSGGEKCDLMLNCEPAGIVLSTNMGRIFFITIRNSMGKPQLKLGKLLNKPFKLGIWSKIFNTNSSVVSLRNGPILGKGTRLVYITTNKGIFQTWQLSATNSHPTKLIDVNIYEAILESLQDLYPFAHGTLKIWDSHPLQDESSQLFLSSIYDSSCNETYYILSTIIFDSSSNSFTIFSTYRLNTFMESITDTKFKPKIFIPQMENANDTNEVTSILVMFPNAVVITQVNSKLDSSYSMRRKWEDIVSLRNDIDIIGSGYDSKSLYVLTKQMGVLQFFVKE
T2 sequence (P52891 whole entry): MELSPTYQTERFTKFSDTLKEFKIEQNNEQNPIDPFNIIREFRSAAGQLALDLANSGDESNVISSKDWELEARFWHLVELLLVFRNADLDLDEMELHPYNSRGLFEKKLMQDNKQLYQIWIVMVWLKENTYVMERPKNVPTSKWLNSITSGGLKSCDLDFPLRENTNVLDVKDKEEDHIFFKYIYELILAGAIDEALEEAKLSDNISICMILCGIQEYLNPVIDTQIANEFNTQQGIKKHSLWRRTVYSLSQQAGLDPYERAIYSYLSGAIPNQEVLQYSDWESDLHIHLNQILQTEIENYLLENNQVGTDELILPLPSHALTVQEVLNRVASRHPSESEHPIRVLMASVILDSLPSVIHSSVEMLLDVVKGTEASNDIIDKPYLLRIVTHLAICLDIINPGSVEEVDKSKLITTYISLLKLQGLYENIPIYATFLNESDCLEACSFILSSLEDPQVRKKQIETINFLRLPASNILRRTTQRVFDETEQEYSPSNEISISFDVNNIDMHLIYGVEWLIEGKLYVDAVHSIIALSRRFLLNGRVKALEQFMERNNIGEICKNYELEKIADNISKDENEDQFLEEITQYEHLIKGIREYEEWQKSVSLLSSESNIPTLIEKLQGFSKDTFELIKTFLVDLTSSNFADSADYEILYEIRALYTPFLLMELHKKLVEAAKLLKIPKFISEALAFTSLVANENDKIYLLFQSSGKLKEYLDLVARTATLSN
T3 sequence (P52891 whole entry, chain 1 of 2): as the sequence (P52891 whole entry) above
T3 sequence (P36161 521-1157, chain 2 of 2): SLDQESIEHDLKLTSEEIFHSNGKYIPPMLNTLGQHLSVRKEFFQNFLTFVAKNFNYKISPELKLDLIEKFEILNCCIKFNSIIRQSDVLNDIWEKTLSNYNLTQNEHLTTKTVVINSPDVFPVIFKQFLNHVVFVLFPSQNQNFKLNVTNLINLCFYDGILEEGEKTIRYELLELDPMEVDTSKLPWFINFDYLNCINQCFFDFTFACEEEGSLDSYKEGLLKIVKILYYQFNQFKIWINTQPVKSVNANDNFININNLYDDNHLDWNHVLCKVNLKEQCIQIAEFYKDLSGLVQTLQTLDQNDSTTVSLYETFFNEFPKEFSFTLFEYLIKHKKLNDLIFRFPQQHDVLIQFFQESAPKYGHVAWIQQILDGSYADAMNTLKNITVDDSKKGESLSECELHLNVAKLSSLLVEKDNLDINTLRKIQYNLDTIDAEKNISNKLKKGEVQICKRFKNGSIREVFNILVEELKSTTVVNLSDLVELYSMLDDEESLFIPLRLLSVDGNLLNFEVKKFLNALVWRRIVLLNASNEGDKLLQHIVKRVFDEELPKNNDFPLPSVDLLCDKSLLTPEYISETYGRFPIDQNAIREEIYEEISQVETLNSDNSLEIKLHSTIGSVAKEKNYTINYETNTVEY

B1: VHH-SAN4 (VHH)
VHH: QLQLVESGGGSVQAGGSLTLSCTASESISKRIHGIGWFRQRRGEQREEIAYITTGGRPNLGDSVKDRFTISRDKSNGTVYLQMNSLKPEDTAVYYCHGRGRWWGTEGRLDYWGQGTQVTVSS
notes: structure with this nanobody deposited as PDB 6X05; also called nanobody VHH-SAN4; source: E. coli LOBSTR-RIL(DE3), purified (Ni Sepharose, tag cut with bdSENP1, Superdex 75); not shown: 14xHis, N-terminal, cleaved; bdSUMO, N-terminal, cleaved
Take B1: the binding result in assay [1] is given as “binds”.

B2: VHH-SAN8 (VHH)
VHH: QLQLVETGGGLVQAGGSLRLSCVASGRTFTSYAMGWFRQAPGKEREFVAAISRLASGTDYADSVKGRFTISRNNDKNTVYLQMNNLIPEDTAVYYCAALQALRFSLPIAMATMKNGRADSWGQGTQVTVSS
notes: structures with this nanobody deposited as PDB 6X02 and 6X03 (modelled as a generic nanobody without CDRs); Selected by phage display from an alpaca immunised with the full-length Y complex, panned against Nup84; also called VHH8; nanobody VHH-SAN8; source: E. coli LOBSTR-RIL(DE3), purified (Ni Sepharose, tag cut with bdSENP1, Superdex 75); not shown: 14xHis, N-terminal, cleaved; bdSUMO, …
Regarding B2, the binding result in assay [2] and in assay [3] was “binds” throughout.

B3: VHH-SAN5 (VHH)
VHH: QVQLVESGGGLVQAGGSLRLSCAASGSIGSLDAMAWYRRAPGKQRERVASISRYGTYYVDSVKGRFTISRDNAKNTVYLQMNSLKPEDTGVYYCKGVMEVGGVIDEYWGQGTQVTVSS
notes: structure with this nanobody deposited as PDB 6X04; also called nanobody VHH-SAN5; source: E. coli LOBSTR-RIL(DE3), purified (Ni Sepharose, tag cut with bdSENP1, Superdex 75); not shown: 14xHis, N-terminal, cleaved; bdSUMO, N-terminal, cleaved
Turning to B3, in assay [4], the binding result is on record as “binds”.

B4: VHH-SAN9 (VHH)
VHH: QVQLVESGGGSVQAGGSLRLSCAVSGGTLSTLAMGWFRQAPGQEREFVARIGWTNGDTGYADSVKGRFTISRDNVKNTVYLQMNNLKPEDTALYYCATRRPYGSTLYPPNTESAHDNWGQGTQVTVSS
notes: structure with this nanobody deposited as PDB 6X03 (modelled as a generic nanobody without CDRs); also called VHH9; nanobody VHH-SAN9; source: E. coli LOBSTR-RIL(DE3), purified (Ni Sepharose, tag cut with bdSENP1, Superdex 75); not shown: 14xHis, N-terminal, cleaved; bdSUMO, N-terminal, cleaved
Take B4: the binding result in assay [5] and in assay [6] was “binds” in each case.
